In data set [1] the target is TGF-beta1 (hTGF-beta1) (Homo sapiens) (UniProt P01137). Description: cell_activity. Conditions: 2'-F C and U; MLEC assay; sequence contains N; column inferred.
The target is the same in data set [2]. The experiment in a line: filter.

From US6124449 come the findings set out here.

pKd, pKi: −log10 of the molar value.

TGF-beta1 (hTGF-beta1) (Homo sapiens), sequence (P01137 279-390): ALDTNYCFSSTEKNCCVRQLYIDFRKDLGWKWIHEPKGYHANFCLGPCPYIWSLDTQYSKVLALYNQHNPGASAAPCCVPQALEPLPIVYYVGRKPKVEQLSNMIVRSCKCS

One may read the pKi as the negative decadic logarithm of the Ki, by convention in mol/L. A high value points to a small Ki. Consider “GGGAGGACGAUGCGGGACCNUUGUNUGCGAUUCAACUCGUAGGUCUUCUCACGUGCAGACGACUCGCCCGA [40-75]”, for which the pKi in data set [1] was 8.65.
By pKd is commonly meant −log10 of the Kd, conventionally taken in molar units. A higher pKd goes with a low Kd. “GGGAGGACGAUGCGGNNNNNNNNNNNNNNNNNNNNNNNNNNNNNNNNNNNNNNNNCAGACGACUCGCCCGA [random 40N7 RNA pool]” had a pKd in data set [2] (2'-F C and U (RNA transcript of template), random 2'-F RNA, DPBS, 1 mM MgCl2, 37 C) of 8.00.
Turning to “GGGAGGACGAUGCGGUUAACCNUAAAUACGGCUUGANUUCUUCCGCAGACGACUCGCCCGA [30-19]”, in data set [2] (2'-F C and U, biphasic, Kd1 5.7±1.9 nM), the pKd was 9.46.
